Data reported in patent US20240293553A1, “P-SELECTIN INHIBITORS AND USES THEREOF” (Beth Israel Deaconess Medical Center, Inc., priority 2021, published 2024).
Square brackets hold non-standard residues; d marks the D form. Ends that are not written are not given here. F∗ = phenylalanine sulfonate

Target: human P-selectin-Ig chimera (human) (UniProt P16109)
Assay: SPR (Biacore): biotinylated ligand on streptavidin chip, P-selectin-Ig flowed at 0.4-100 nM

Sequence of human P-selectin-Ig chimera (human) (P16109 42-771, change not shown): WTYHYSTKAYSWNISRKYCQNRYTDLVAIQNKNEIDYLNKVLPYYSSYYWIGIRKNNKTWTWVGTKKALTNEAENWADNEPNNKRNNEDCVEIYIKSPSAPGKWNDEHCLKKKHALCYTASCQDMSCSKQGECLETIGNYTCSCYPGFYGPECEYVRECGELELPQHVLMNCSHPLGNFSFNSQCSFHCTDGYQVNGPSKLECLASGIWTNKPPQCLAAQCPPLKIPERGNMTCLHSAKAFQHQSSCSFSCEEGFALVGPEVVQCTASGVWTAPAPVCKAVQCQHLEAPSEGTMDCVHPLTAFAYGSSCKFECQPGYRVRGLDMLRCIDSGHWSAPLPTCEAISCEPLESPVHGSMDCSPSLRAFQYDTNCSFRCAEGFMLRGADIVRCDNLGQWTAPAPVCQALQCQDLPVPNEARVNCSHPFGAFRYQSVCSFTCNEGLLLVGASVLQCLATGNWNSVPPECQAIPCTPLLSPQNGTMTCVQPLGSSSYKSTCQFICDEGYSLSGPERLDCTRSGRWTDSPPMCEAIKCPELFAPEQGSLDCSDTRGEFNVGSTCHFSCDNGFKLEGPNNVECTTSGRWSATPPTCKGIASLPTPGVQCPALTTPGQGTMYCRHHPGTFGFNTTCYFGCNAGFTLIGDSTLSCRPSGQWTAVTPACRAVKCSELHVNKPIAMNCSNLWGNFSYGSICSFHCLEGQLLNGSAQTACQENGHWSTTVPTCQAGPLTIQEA

B1: GSnP-6 (peptide)
peptide: KE[F∗]E[F∗]LD[F∗]DFLPET(Neu5Acα2‑3Galβ1‑4(Fucα1-3)GlcNAcβ1‑6(Galβ1-3)GalNAcα)EPL
  Kd: 27 nM
